The values below are quoted from earlier work in article PMC9213791.

This data set concerns the target cardiac troponin C N-terminal domain (cNTnC) N-terminal domain (Homo sapiens) (UniProt P63316).

Sequence of cardiac troponin C N-terminal domain (cNTnC) N-terminal domain (Homo sapiens) (P63316 1-89): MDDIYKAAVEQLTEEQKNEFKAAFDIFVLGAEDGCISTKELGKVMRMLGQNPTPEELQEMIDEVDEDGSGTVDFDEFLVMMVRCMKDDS

Regarding “cardiac troponin I switch peptide switch peptide (from UniProt P19429)”, the dissociation constant Kd was 154 µM.
